According to patent US10648979B2, “Molecular probes for detecting gram-negative bacteria in vitro and in vivo” (priority 2014, dated 2020):
Read-outs that look alike come from different tables or passages of the source. Bridge positions count the residues as written; N and C are the ends. Square brackets hold non-standard residues; d marks the D form. Peptide text beside a SMILES is read from it. * marks the point of attachment. ξ: configuration not given here. X1 = CN(C)c1ccc2c(c1)Oc1cc(N(C)C)ccc1C21OC(=O)c2ccc(C(=O)*)cc21; MethylRed = CN(C)c1ccc(/N=N/c2ccccc2C(=O)*)cc1; NBD = O=[N+]([O-])c1ccc(*)c2nonc12; dDab = NCC[C@@H](N)C(=O)O; Dab = NCC[C@H](N)C(=O)O; AEEA = NCCOCCOCC(=O)O; ξDab = NCCC(N)C(=O)O; ξK = NCCCCC(N)C(=O)O; ξV = CC(C)C(N)C(=O)O; ξP = O=C(O)C1CCCN1; ξA = CC(N)C(=O)O

Assays:
[1] = tested on: Methicillin sensitive Staphylococcus aureus (MSSA); assay: Elastase dependant bacterial labelling in co-culture of bacteria and isolated human neutrophils (confocal); type: cell-based
Text: FIG. 2A: Elastase dependant bacterial labelling scheme.
FIG. 2B: Elastase dependant bacterial labelling in vitro.
A first example of elastase sensitive probes (shown schematically in FIG. 2A) comprises methyl red (acting as a dark quencher) connected via the peptide sequence AAPV (acting as the linker) to 7-nitrobenz-2-oxa-1,3-diazole (NBD) and the ubiquicidin fragment UBI29-41 (together acting as the probe element). Accordingly, the NBD fluorescence is quenched by the methyl red and no fluorescent signal will be observed (i.e. the methyl red and NBD are acting as a FRET pair) and therefore, whether or not the probe is bound to any bacteria that may be present in the target area via UBI29-41, no signal is observed using confocal microscopy.
When the probe is in the presence of human neutrophil elastase (HNE), such as in inflamed tissue, HNE cleaves the peptide sequence of the linker, to thereby free the probe element from the methyl red quencher. Accordingly, the NBD fluorophore is no longer quenched and produces a fluorescent signal. In addition, due to the environmental sensitivity of the NBD, the signal produced is greatly amplified if the NBD is in a hydrophobic environment, such as within a cell membrane.

[2] = Stability in saline or BALF from patients with Acute Lung Injury (MALDI-TOF / FTMS); settings: incubated for 30 minutes
Procedure: FIG. 16: NBD-UBIdend is stable in ALI BALF. […] NBD-PMX is stable in ALI BALF.
Secondly we assessed stability of the probes in broncholalveolar lavage fluid (BALF) from patients with Acute Lung Injury (ALI) by Fourier Transform Mass Spectrometry (FTMS) and Matrix-Assisted Laser Desorption/Ionization Time-of-Flight Mass Spectrometry (MALDI-TOF MS) analysis. NBD-UBINle, NBD-UBIdend and NBD-PMX were incubated for 30 minutes with BALF (FIG. 16).
In vitro labelling was assessed on benchtop confocal in the presence of compound with bacteria and labelling was compared to NBD-UBINle which served as a reference control for bacterial labelling. […] For the ex vivo and in vivo ovine lung experiments each compound was assessed in a control lung segment (instilled with 2 ml PBS) or a bacterial segment (instilled with 2 ml of 2 optical density of bacteria). Following bacterial instillation, the compound was administered to the segment of interest and this was imaged by probe based confocal laser endomicroscopy (FCFM).
Probe was added to saline or pooled BALF from patients with ALI incubated for 30 minutes. A ZipTip (C-18, 0.2 μL) with 5 μL MeCN (with 0.1% TFA as an additive) followed by 20 μL of H2O was washed. The ZipTip was loaded with the sample, washed and eluted into 5 μL of 80% aq. MeCN (with 0.1% TFA as an additive). The sample was analysed by MALDI-TOF (PerSeptive Biosystems Voyager DETMSTR MALDI-TOF mass spectrometer (Applied Biosystems, Foster City, Calif.)).

[3] = Rodent single dose intratracheal toxicity assessment; type: in vivo, Mice; parameters: Creatinine / Bilirubin / Albumin: unit not given here
human erythrocytes = assay: Haemolysis assay; settings: up to 100 μM; 0.2% Triton-X = 100%
Procedure: Positive control was 0.2% Triton-X and values corrected to represent 100% haemolysis for Triton-X.
Erythrocytes were isolated from freshly drawn, anticoagulated human blood and resuspended to 20 vol % in PBS (pH 7.4). In a 96-well microtiter plate, 100 μl of erythrocyte suspension was added to 100 μl of NLLP solution in PBS (prepared by 1:2 serial dilutions) or 100 μl of PBS in the case of negative controls. One-hundred percent haemolysis wells contained 100 μl of red cell suspension with 100 μl of 0.2 vol % Triton X-100. The plate was incubated for 1 h at 37° C., and then each well was diluted with 150 μl of PBS. The plate was then centrifuged at 1,200 g for 15 min, 100 μl of the supernatant from each well was transferred to a fresh microtiter plate, and A350 was measured. Percentage of haemolysis was determined as (A−A0)/(Atotal−A0)×100, where A is the absorbance of the test well, A0 the absorbance of the negative controls, and Atotal the absorbance of 100% haemolysis wells, all at 350 nm on a Biotek plate reader.

[4] = tested on: Pseudomonas aueriginosa (PA)
Text: (§1) FIG. 3A: Elastase dependant bacterial labelling scheme. The fluorophore on the bacterial binding component is quenched by a different fluorophore of a longer wavelength meaning that no fluorescence is seen upon binding to bacteria. Cleavage of the elastase specific sequence AAPV liberates the bacterial binding component (PV-NBD-UBI) from the quencher (TAMRA). TAMRA reports the presence of activated neutrophils by endocytic uptake.
(§2) FIG. 3B: Elastase dependant bacterial labelling in vitro.
In a second example, the probe comprises carboxytetramethylrhodamine (TAMRA, acting as a fluorescent quencher) connected to NBD and polymyxin (acting as the probe element) via the peptide sequence AAPV (acting as the linker). Accordingly, the NBD fluorescence is quenched by the TAMRA to give rise to a fluorescent signal from TAMRA (i.e. the TAMRA is accepting the energy absorbed by the NBD and is itself fluorescing, TAMRA and NBD are acting as a FRET pair). Accordingly, whether or not the polymyxin has bound to any bacteria that may be present, only a signal from the TAMRA is observed.

activated neutrophils = settings: TAMRA signal (red)
Text: as §1, §2

elastase = elastase (Homo sapiens, UniProt P08246); settings: ex 525, Em 580
Chain of elastase (P08246 30-247 limits assumed): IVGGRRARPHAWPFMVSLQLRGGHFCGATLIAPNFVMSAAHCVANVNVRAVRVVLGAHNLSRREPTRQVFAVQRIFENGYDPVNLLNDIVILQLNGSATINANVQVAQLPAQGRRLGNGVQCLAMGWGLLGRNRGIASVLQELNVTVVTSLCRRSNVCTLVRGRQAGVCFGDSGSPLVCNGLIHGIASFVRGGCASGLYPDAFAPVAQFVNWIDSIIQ

CSCCC(NC(=O)C(CCCNC(=N)N)NC(=O)C(CCCNC(=N)N)NC(=O)C(CCCCN)NC(=O)C(C)NC(=O)C(CCCNC(=N)N)NC(=O)CNC(=O)C(NC(=O)COCCOCCNC(=O)C(CCCCNc1ccc([N+](=O)[O-])c2nonc12)NC(=O)C(NC(=O)C1CCCN1C(=O)C(C)NC(=O)C(C)NC(=O)c1ccccc1/N=N/c1ccc(N(C)C)cc1)C(C)C)C(C)O)C(=O)NC(CCC(N)=O)C(=O)NC(Cc1ccc(O)cc1)C(=O)NC(CC(N)=O)C(=O)NC(CCCNC(=N)N)C(=O)NC(CCCNC(=N)N)C(N)=O (centres unmarked) [Example 1] (MethylRed-AAPVK(NBD)[AEEA]TGRAKRRMQYNRR-NH2; configuration not given here)
bacterial labelling in co-culture of bacteria and neutrophils ([1]; confocal, neutrophil derived HNE present): ability of the probe to be cleaved by neutrophil derived HNE and to label bacteria
bacterial labelling with elastase inhibitor ([1]; elastase inhibitor sivelestat added to the medium): no labelling was observed

CCCC[C@H](NC(=O)[C@H](CCCNC(=N)N)NC(=O)[C@H](CCCNC(=N)N)NC(=O)[C@H](CCCCN)NC(=O)[C@H](C)NC(=O)[C@H](CCCNC(=N)N)NC(=O)CNC(=O)[C@@H](NC(=O)COCCOCCNc1ccc([N+](=O)[O-])c2nonc12)[C@@H](C)O)C(=O)N[C@@H](CCC(N)=O)C(=O)N[C@@H](Cc1ccc(O)cc1)C(=O)N[C@@H](CC(N)=O)C(=O)N[C@@H](CCCNC(=N)N)C(=O)N[C@@H](CCCNC(=N)N)C(=O)NCCOCCOCC(=O)NCCCOCC(COCCCNC(=O)COCCOCCNC(=O)[C@H](CCCNC(=N)N)NC(=O)[C@H](CCCNC(=N)N)NC(=O)[C@H](CC(N)=O)NC(=O)[C@H](Cc1ccc(O)cc1)NC(=O)[C@H](CCC(N)=O)NC(=O)[C@H](CCCC)NC(=O)[C@H](CCCNC(=N)N)NC(=O)[C@H](CCCNC(=N)N)NC(=O)[C@H](CCCCN)NC(=O)[C@H](C)NC(=O)[C@H](CCCNC(=N)N)NC(=O)CNC(=O)[C@@H](NC(=O)COCCOCCNc1ccc([N+](=O)[O-])c2nonc12)[C@@H](C)O)(COCCCNC(=O)COCCOCCNC(=O)[C@H](CCCNC(=N)N)NC(=O)[C@H](CCCNC(=N)N)NC(=O)[C@H](CC(N)=O)NC(=O)[C@H](Cc1ccc(O)cc1)NC(=O)[C@H](CCC(N)=O)NC(=O)[C@H](CCCC)NC(=O)[C@H](CCCNC(=N)N)NC(=O)[C@H](CCCNC(=N)N)NC(=O)[C@H](CCCCN)NC(=O)[C@H](C)NC(=O)[C@H](CCCNC(=N)N)NC(=O)CNC(=O)[C@@H](NC(=O)COCCOCCNc1ccc([N+](=O)[O-])c2nonc12)[C@@H](C)O)NC(N)=O (some centres unmarked) [NBD-UBIdend]
stability in ALI BALF [2]: demonstrate stability
stability in saline [2]: readily identified in both saline and BALF incubated samples
ALP ([3]; 48 hours): 222.3 ± 80.3 u/l
ALT ([3]; 48 hours): 24.0 ± 1.2 u/l
Albumin ([3]; 48 hours): 22.3 ± 1.8
BALF ([3]; 48 hours): 477.1 ± 150.6 Cells/ul
Bilirubin ([3]; 48 hours): 2 ± 0
Creatinine ([3]; 48 hours): 8.3 ± 0.7
Cytospin (% of Neutrophils) ([3]; 48 hours): 3.6%
Cytospin (% of Red Blood Cells) ([3]; 48 hours): 0%
PenH value ([3]; 48 hours): 0.5 ± 0.06
Cytospin (% of Mononuclear cells) ([3]; 48 hours, single intratracheal 100 μg/25 g mouse): 96.4%
ALP ([3]; 14 days): 227.0 ± 27.1 u/l
ALT ([3]; 14 days): 28.3 ± 1.9 u/l
Albumin ([3]; 14 days): 25.0 ± 1.2
BALF ([3]; 14 days): 342.7 ± 6.5 Cells/ul
Bilirubin ([3]; 14 days): 2 ± 0
Creatinine ([3]; 14 days): 9.0 ± 1.5
Cytospin (% of Neutrophils) ([3]; 14 days): 0%
Cytospin (% of Red Blood Cells) ([3]; 14 days): 0%
PenH value ([3]; 14 days): 0.5 ± 0.04
Cytospin (% of Mononuclear cells) ([3]; 14 days, single intratracheal 100 μg/25 g mouse): 100%
organ toxicity (histology) ([3]; single instillation, 48 hours and 14 days, compared to PBS control): no organ toxicity
toxicity ([3]; single intratracheal 100 μg/25 g mouse, 48 hours and 14 days): no toxicity
red cell haemolysis (human erythrocytes): no red cell haemolysis

CC(C)C[C@@H]1NC(=O)[C@@H](Cc2ccccc2)NC(=O)[C@@H](CCN)NC(=O)C(NC(=O)[C@H](CCN)NC(=O)[C@@H](NC(=O)COCCOCCNC(=O)C(CCCCNc2ccc([N+](=O)[O-])c3nonc23)NC(=O)C(NC(=O)C2CCCN2C(=O)C(C)NC(=O)C(C)NC(=O)c2ccc3c(c2)C2(OC3=O)c3ccc(N(C)C)cc3Oc3cc(N(C)C)ccc32)C(C)C)[C@@H](C)O)CCNC(=O)[C@@H]([C@H](C)O)NC(=O)[C@H](CCN)NC(=O)[C@H](CCN)NC1=O (some centres unmarked) [TAMRA-AAPV-NBD-PMX] (X1-[ξA][ξA][ξP][ξV][ξK](NBD)[AEEA]T[Dab][ξDab][dDab][dF]L[Dab][Dab][dT]; lactam 9-C)
bacterial labelling ([4]; activated neutrophils, NBD signal (green)): bacterial labelling (shown in green) in an elastase dependent manner
bacterial labelling ([4]; unactivated neutrophils): no labelling in the presence of unactivated neutrophils
labelling of activated neutrophils (activated neutrophils): labelling of activated neutrophils (shown in red) in an elastase independent manner
fluorescence of TAMRA following cleavage, with elastase inhibitor (elastase; elastase inhibitor): inhibited with an elastase inhibitor
fluorescence of TAMRA following cleavage (elastase; with elastase): increase in fluorescence of TAMRA-AA (cleaved compound) compared to TAMRA-AAPV-NBD-PMX in an elastase dependent manner
